Patent US20240092920A1 (KEYMED BIOSCIENCES, published 2024)
Where a chain is given by its changes, count along the chain named.

T1: recombinant protein of human IL-4Rα extracellular region (human, UniProt P24394 26-232)
T1 construct: range 26-232; Made in HEK293-6E cells, purified on nickel chelate; Used biotin-labeled on SA probes in the Fortebio assays and unlabeled as ELISA coat; also called hIL-4Rα; IL-4Rα recombinant protein
T1 sequence: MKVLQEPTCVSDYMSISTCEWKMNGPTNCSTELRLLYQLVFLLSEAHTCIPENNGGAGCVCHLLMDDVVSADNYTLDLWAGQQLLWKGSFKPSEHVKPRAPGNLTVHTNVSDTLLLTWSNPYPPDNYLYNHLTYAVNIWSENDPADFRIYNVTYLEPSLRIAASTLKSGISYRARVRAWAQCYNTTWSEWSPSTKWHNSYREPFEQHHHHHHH

T2: hIL-4Rα, full length, on stably transfected HEK293 cells (human, UniProt P24394 26-825)
T2 construct: whole, on cells; also called HEK293-hIL-4Rα
T2 sequence (looked up): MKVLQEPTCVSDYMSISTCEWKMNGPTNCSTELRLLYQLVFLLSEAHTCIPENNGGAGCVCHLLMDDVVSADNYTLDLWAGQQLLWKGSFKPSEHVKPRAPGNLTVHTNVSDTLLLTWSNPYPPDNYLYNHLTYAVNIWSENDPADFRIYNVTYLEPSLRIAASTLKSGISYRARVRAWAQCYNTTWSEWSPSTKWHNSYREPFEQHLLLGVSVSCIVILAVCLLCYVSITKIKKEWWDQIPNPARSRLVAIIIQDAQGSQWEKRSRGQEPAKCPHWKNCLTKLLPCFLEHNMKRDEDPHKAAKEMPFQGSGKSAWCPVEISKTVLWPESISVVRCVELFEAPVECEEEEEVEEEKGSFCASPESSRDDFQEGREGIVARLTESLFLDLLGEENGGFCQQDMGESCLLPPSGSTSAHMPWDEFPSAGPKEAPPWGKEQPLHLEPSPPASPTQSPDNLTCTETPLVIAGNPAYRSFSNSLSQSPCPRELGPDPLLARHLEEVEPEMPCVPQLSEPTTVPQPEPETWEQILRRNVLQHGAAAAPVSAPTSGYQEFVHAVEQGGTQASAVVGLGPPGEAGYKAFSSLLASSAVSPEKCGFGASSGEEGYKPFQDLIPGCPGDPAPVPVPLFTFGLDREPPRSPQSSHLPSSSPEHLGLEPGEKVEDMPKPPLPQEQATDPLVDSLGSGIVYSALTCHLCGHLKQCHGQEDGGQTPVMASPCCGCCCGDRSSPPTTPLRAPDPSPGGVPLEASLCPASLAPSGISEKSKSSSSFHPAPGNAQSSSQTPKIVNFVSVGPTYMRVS

T3: recombinant protein of cynomolgus IL-4Rα extracellular region (cynomolgus monkey)
T3 construct: also called cynoIL-4Rα; cynomolgus monkey IL-4Rα
T3 chain: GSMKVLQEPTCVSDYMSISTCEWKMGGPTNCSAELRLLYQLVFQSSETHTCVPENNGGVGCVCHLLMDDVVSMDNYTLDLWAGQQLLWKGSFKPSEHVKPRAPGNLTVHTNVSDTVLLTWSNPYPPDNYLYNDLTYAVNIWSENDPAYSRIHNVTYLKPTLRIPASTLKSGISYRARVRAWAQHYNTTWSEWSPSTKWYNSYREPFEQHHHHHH

B1: 1021/1013 (antibody, IgG1, V domains shown)
VH: EVQLVESGGGLVKPGGSLRLSCAASGFTFSRYAMSWVRQAPGKGLEWVSTISSGGSYTNYADSVKGRFTISRDNVKNTLYLQMNSLRAEDTAVYYCARATARATEFAYWGQGTLVTVSS
VL: DIQMTQSPSSLSASVGDRVTITCQASQDISNYLNWYQQKPGKAPKLLIYYTSRLHSGVPSRFSGSGSGTDYTLTISSLQPEDFATYFCQQGNTLPLTFGGGTKVEIK
notes: Humanized candidate antibody; also called 1021/1013-IgG; VH1021 with VL1013
B2: 1026/1011 (antibody, V domains shown)
VH: QVQLVQSGAEVKKPGASVKMSCKASVYTFTGYNMHWVRQAPGQGLEWIGGLHPGNGDTSYNQKFKDRATLTADRSSNTAYMELSSLRSEDTAVYYCALTTAGRAWFAYWGQGTLVTVSS
VL: B1 VL with L73F, F83I, L96W
notes: Humanized candidate antibody; same remark on Fab/IgG wording as for 1021/1013; also called 1026/1011-IgG; VH1026 with VL1011
B3: 1026/1012 (antibody, V domains shown)
VH: B2 VH
VL: B1 VL with Q24R, L96W
notes: Humanized candidate antibody; same remark on Fab/IgG wording as for 1021/1013; also called 1026/1012-IgG; VH1026 with VL1012
B4: 1022/1013 (antibody, V domains shown)
VH: B1 VH with V5L, K13Q
VL: B1 VL
notes: Humanized candidate antibody; same remark on Fab/IgG wording as for 1021/1013; also called 1022/1013-IgG; VH1022 with VL1013

target: T1, recombinant protein of human IL-4Rα …; test: ELISA on coated human hIL-4Rα (1 ug/ml), HRP-linked secondary antibody, OD450
Experimental: (§1) 1 ug/ml human hIL-4Rα, 10 ug/ml cynomolgus cynoIL-4Rα, 1 ug/ml mouse mIL-4Rα (Sino Biological, Cat: 80198-R08H) and 1 ug/ml rat-derived ratIL-4Rα (Sino Biological, Cat: 51180-MO8H) are diluted in 0.05 M carbonate coating buffer (pH 9.5) at 4° C. overnight. The solution in the wells is discarded the next day and the wells are washed 3 times with PBS washing buffer. Then PBS solution containing 2% BSA is added for blocking for 2 hours. After washing 3 times with PBS washing buffer, 100 ul of humanized candidate antibodies at different diluted concentrations is added, incubated for 1 h at room temperature, and then washed 3 times with PBS washing buffer; the HRP cross-linked antibody (Jackson Immuno Research) is diluted at 1:10000 with PBS washing buffer and incubated for 1 hour at room temperature. After washing 3 times with PBS washing buffer, 100 ul of TMB substrate solution is added to develop color, and after reaction at room temperature for 10 minutes; the reaction is stopped by the addition of 50 ul of 0.5 M concentrated sulfuric acid solution and the absorbance at 450 nm is read.

Row | EC50 [nM] | Binder
1 | 0.064 | B1
2 | 0.06 | B2
3 | 0.017 | B3
4 | 0.067 | B4

target: T2, hIL-4Rα, full length, on stably …; test: flow cytometry on 293-hIL-4Rα stably transfected cells, anti-human IgG Fab'2-AF647
Experimental: Every 1*10⁶ cells corresponds to 100 μl of 3% BSA/PBS solution, and the solution is blocked at 4° C. for 20 minutes. The prepared cells are added to a 96-well U-type plate at a volume of 100 μl/well, and centrifuged at 1100 rpm for 3 minutes, and the supernatant is discarded; and the primary antibody solution is added and incubated for 1 hour on ice. […] After incubation with the primary antibody solution, additional 0.5% BSA/PBS is added to a volume of […], centrifuged at 1100 rpm for 3 minutes, and the supernatant is discarded. 150 μl of 0.5% BSA/PBS is further added, centrifuged at 1100 rpm for 3 minutes, and the supernatant is discarded; before adding a secondary antibody anti-human IgG, Fab′2-AF647, same is diluted at 1:300 with 1% BSA/PBS. 40 μl of the secondary antibody solution is added to each well and incubated on ice for 45 minutes. After incubation with the secondary antibody solution, additional 0.5% BSA/PBS is added to a volume of 150 μl, centrifuged at 1100 rpm for 3 minutes, and the supernatant is discarded; 150 μl of 0.5% BSA/PBS is further added, centrifuged at 1100 rpm for 3 minutes, and the supernatant is discarded; 20-100 μl of PBS is added to resuspend the cells to 1*10⁶ cells per ml, and the obtained suspension is loaded onto a flow cytometer (I-Que screener). After opening the instrument and operating system according to the correct process, and setting the correct parameters, the cells are loaded to the test plate, and the fluorescent signal is detected, analysis is performed using Graph Pad Prism 5 software.

Row | EC50 (read off the curve) [nM] | Binder
5 | ~0.03 | B1
6 | ~0.07 | B2
7 | ~0.06 | B3

Target: T3, recombinant protein of cynomolgus …
Test: ELISA on coated cynomolgus cynoIL-4Rα (10 ug/ml), HRP-linked secondary antibody, OD450
Experimental: as §1

Row | EC50 [nM] | Binder
8 | 1.4 | B1
9 | 89.2 | B2
10 | 13.2 | B3
11 | 1.16 | B4

target: T2, hIL-4Rα, full length, on stably …; test: flow cytometry blocking assay on 293-hIL-4Rα stably transfected cells; blocked ligand: biotin-labeled IL-4 at 0.15 ug/ml, SA-PE
Experimental: Every 1*10⁶ cells corresponds to 100 μl of 3% BSA/PBS solution, and the solution is blocked at 4° C. for 20 minutes. The prepared cells are added to a 96-well U-type plate at a volume of 100 μl/well, and centrifuged at 1100 rpm for 3 minutes, and the supernatant is discarded; and the primary antibody solution is added and incubated for 1 hour on ice. Purified candidate antibodies are made into 5 concentration series with a starting concentration of 100 nM, and diluted according to a series of 1:5. After incubation with the primary antibody solution, additional 0.5% BSA/PBS is added to a volume of 150 μl, centrifuged at 1100 rpm for 3 minutes, and the supernatant is discarded. 150 μl of 0.5% BSA/PBS is further added, centrifuged at 1100 rpm for 3 minutes, and the supernatant is discarded; biotin-labeled IL-4 at a final concentration of 0.15 ug/ml is added and incubated on ice for 45 minutes. The secondary antibody SA-PE is diluted at 1:300 with 1% BSA/PBS; 40 μl of the secondary antibody solution is added to each well and incubated on ice for 45 minutes. After incubation with the secondary antibody solution, additional 0.5% BSA/PBS is added to a volume of 150 μl, centrifuged at 1100 rpm for 3 minutes, and the supernatant is discarded; 150 μl of 0.5% BSA/PBS is further added, centrifuged at 1100 rpm for 3 minutes, and the supernatant is discarded. 20-100 μl of PBS is added to resuspend the cells to 1*10⁶ cells per ml, and the obtained suspension is loaded onto a flow cytometer (I-Que screener). After opening the instrument and operating system according to the correct process, and setting the correct parameters, the cells are loaded to the test plate, and the fluorescent signal is detected, analysis is performed using Graph Pad Prism 5 software.

Row | IC50 (read off the curve) [nM] | Binder
12 | ~0.2 | B2
13 | ~0.2 | B3
14 | ~0.09 | B4
